Reference: patent US20090018067A1 (published 2009)

Tests used:
Assay in all cases: soluble HLA class II competition assay against a biotinylated control peptide, affinity grade
[1] = biological target: T1, HLA DRB1*0101 (purified recombinant soluble HLA class II molecule) (human)
T1 construct: also called DRB*0101

[2] = biological target: T2, HLA DRB1*0701 (purified recombinant soluble HLA class II molecule) (human)
T2 construct: also called DRB*0701

[3] = biological target: T3, HLA DRB1*0401 (purified recombinant soluble HLA class II molecule) (human)
T3 construct: also called DRB*0401

[4] = biological target: HLA DRB1*1501 (purified recombinant soluble HLA class II molecule) (human)

Measured: binding result

VDTSKNQFSLRLSSVTAADTA (Synthetic Fmoc peptide) [Tregitope-074]
binds: all assays above
